Assay results from patent publication US20140196168A1 (SWETREE TECHNOLOGIES, published 2014).

B1: ZFHD1 amino acids 1-132 (two-hybrid derivative, Gal4 activation domain fusion) (other, Arabidopsis thaliana, UniProt Q9SEZ1 1-132, looked up, not shown: large carriers)
chain: MDLSSKPQQQLLNSLPIAGELTVTGEMGVCYKECLKNHAANLGGHALDGCGEFMPSPTATSTDPSSLRCAACGCHRNFHRRDPSENLNFLTAPPISSPSGTESPPSRHVSSPVPCSYYTSAPPHHVILSLSS
B2: DREB2A amino acids 169-254 (two-hybrid derivative, Gal4 activation domain fusion) (other, Arabidopsis thaliana, UniProt O82132 169-254, looked up, not shown: large carriers)
chain: CESKPFSGGVEPMYCLENGAEEMKRGVKADKHWLSEFEHNYWSDILKEKEKQKEQGIVETCQQQQQDSLSVADYGWPNDVDQSHLD

Target: T1, Gal4-DNA Binding Domain fused to the Arabidopsis thaliana Med25 551-680 amino acid domain (bait, pGBKT7-Med25 … (Arabidopsis thaliana))
T1 construct: Expressed in yeast AH109 as a two-hybrid bait; also called G4-DBD-Med25; Med25 bait construct
Experiment: yeast two-hybrid with deletion derivatives

| Binder | binding result |
| --- | --- |
| B1 | binds |
| B2 | binds |
